The target of assay [1] is FITC-casein. The assay can be described thus: fluorescence polarisation; fluorescence anisotropy; ClpB E279Q/E678Q titrated into 100-nM FITC-casein with 5-mM ATP and 80-μM DBeQ; fit of a binding isotherm with a Hill number. In general terms: Fluorescence polarisation rises when a labelled molecule tumbles more slowly, as on binding a larger partner.
Assay [2] has as its target FITC-casein. The assay can be described thus: fluorescence polarisation; fluorescence anisotropy; ClpB E279Q/E678Q titrated into 100-nM FITC-casein with 5-mM ATP, without DBeQ; fit of a binding isotherm with a Hill number.

A word on the Kd: it is the equilibrium constant for the complex coming apart. A high value points to lower affinity. For the substance “ClpB E279Q/E678Q (from UniProt P63284 1-857) (enzyme)”, the values for the Kd in assay [1] and in assay [2] were 78.5 nM and 77.3 nM, respectively.

Source of the values: PMC7948422, “Repurposing p97 inhibitors for chemical modulation of the bacterial ClpB–DnaK bichaperone system” (The Journal of Biological Chemistry, 2020).
